Data published in paper PMC7311396, “Ultra-large chemical libraries for the discovery of high-affinity peptide binders” (Nature Communications, 2020).

Target: FITC-labeled NB.1
Assay: fluorescence polarisation; direct fluorescence anisotropy: 1:1 dilution series of 14-3-3γ (starting at 100 μM) into FITC-labeled peptide (10 nM or 50 nM); 10 mM HEPES pH 7.4, 150 mM NaCl, 0.1% Tween 20, 0.1% BSA; ambient temperature

B1: 14-3-3γ (natural protein)
chain: MVDREQLVQKARLAEQAERYDDMAAAMKNVTELNEPLSNEERNLLSVAYKNVVGARRSSWRVISSIEQKTSADGNEKKIEMVRAYREKIEKELEAVCQDVLSLLDNYLIKNCSETQYESKVFYLKMKGDYYRYLAEVATGEKRATVVESSEKAYSEAHEISKEHMQPTHPIRLGLALNYSVFYYEIQNAPEQACHLAKTAFDDAIAELDTLNEDSYKDSTLIMQLLRDNLTLWTSDQQDDDGGEGNN
fold weaker binding than the 14-3-3γ-binding peptides: 10000 fold
